According to patent US20250313602A1 (NANJING JSIAMA BIOPHARMACEUTICALS, published 2025):

Legend:
[1] = biological target: T1, human IL-2Rβ protein (10696-H05H, Sino Biological) (human, UniProt P14784 27-239); experiment: ELISA, IL-2Rβ coated at 2 µg/ml; reference wild-type IL-2
T1 construct: Both are treated as the same protein; also called receptor IL-2Rβ protein; CD122
T1 sequence (looked up): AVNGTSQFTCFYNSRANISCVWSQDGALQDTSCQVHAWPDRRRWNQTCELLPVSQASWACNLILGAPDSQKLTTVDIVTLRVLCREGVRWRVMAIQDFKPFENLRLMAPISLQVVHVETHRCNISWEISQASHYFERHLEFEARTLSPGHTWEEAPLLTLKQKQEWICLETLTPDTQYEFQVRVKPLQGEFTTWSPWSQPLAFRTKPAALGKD

[2] = biological target: T2, human IL-2Rα protein (10165-H08H, Sino Biological) (human, UniProt P01589 22-213); experiment: ELISA, IL-2Rα coated at 2 µg/ml
T2 construct: Both are treated as the same protein; also called receptor IL-2Rα protein; CD25
T2 sequence (looked up): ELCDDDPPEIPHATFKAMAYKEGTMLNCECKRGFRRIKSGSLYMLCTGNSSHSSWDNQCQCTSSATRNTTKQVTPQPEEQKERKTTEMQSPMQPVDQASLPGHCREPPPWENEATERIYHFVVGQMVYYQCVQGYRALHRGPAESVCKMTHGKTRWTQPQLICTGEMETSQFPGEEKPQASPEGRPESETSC

fold improvement of binding capacity compared with wild-type IL-2 [1]: 24 times | binding result [2]: binds
B1: IL-2-Fc fusion protein (Fc fusion)
chain: APTSSSTKKTQLQLEHLLLDLQMILNGINNYKNPKLTAMLTFKFYMPKKATELKHLQCLEEELKPLEEVLNLAQSKNFHFDPRDVVSNINVFVLELKGSETTFMCEYADETATIVEFLNRWITFCQSIISTLTGGGGSGGGGSGGGGSEPKSCDKTHTCPPCPAPEAAGGPSVFLFPPKPKDTLYITREPEVTCVVVDVSHEDPEVKFNWYVDGVEVHNAKTKPREEQYNSTYRVVSVLTVLHQDWLNGKEYKCKVSNKALPAPIEKTISKAKGQPREPQVYTLPPSREEMTKNQVSLTCLVKGFYPSDIAVEWESNGQPENNYKTTPPVLDSDGSFFLYSKLTVDKSRWQQGNVFSCSVMHEALHNHYTQKSLSLSPK
